Test results: US20090291083A1, “BARB4 TARGET, ANTIBODY DESIGNATED BARB4, BARB4 RELATED ANTIBODIES, AND METHODS OF MAKING AND USING SAME” (PATRYS LIMITED, priority 2008, published 2009)

Assays:
Assay type in all cases: binding, human
[1] = system: BXPC-3 cells transfected with TAF 15 siRNA; experiment: FACS analysis after TAF 15 siRNA knockdown; conditions: BARB4 300 μg/ml
Experimental: Before transfection, 24-well plates were inoculated with 0.5×10^4 BXPC-3 cells in growth medium (RPMI 1640 supplemented with […] and 1% (V/V) glutamine). The cells were incubated at 37° C. and a 7% CO2 atmosphere over night to reach a confluence of 50 to 70% the following day. 60 minutes prior to transfection, the medium was carefully aspirated from the wells and 250 μl (300 μl for nontransfected cells) fresh growth medium was added. For each well 50 μl transfection solution was prepared. First […] serum-free OptiMEM® I+GlutaMAX™-I (1×) medium (Invitrogen, Karlsruhe) supplemented with 0.5 μl siLentFect™Lipid Reagent (Biorad, München) was mixed. Afterwards 25 μl serum-free medium containing siGENOME SMARTpool siRNA (Dharmacon, Lafayette, USA) was prepared to achieve a final concentration of 100 nM siRNA. Both solutions were prepared separately. After five minutes they were added together and mixed by pipetting. […]
FACS assays were done with transfected cells. […] At least 200 μl FACS buffer was added and cells were analyzed by flow cytometry (FACScan; Becton Dickinson, San Jose, Calif.) using WinMDI software. […]
Mouse anti-human CD55 antibody (DAF; 1:1000; Acris, Hiddenhausen) was used to control protein expression of other cell surface membrane proteins. […] The cells were analyzed by flow cytometry (FACScan, Becton Dickinson, San Jose) and evaluated with WinMDI software.

[2] = system: Malignant Tissues: Breast; experiment: Immunohistochemistry (IHC) with biotinylated BARB4 on malignant tissue; conditions: positive/negative
Experimental: (§1) Immunohistochemistry with human IgG on human tissue naturally results in high background staining. Accordingly, BARB4 was labeled with biotin to reduce background.
(§2) BARB4 antibody and an unrelated commercial IgG control (Chrompure IgG, Dianova) where labelled with “EZ-Link Maleimide-PEO Solid Phase Biotinylation Kit” from Pierce (Cat-# 21930) and Immunohistochemistry was initiated on different tumor tissue. Parrafin embedded tissue was first deparaffinized by treatment with Xylene 1 for 5 min, Xylene 2 for 5 min, followed by 100% Ethanol 1 for 5 min, 100% Ethanol 2 for 5 min, 70 ml Methanol+500 μl H2O2 for 7 min, 90% Ethanol 1 for 3 min, 90% Ethanol 2 for 3 min, 80% Ethanol 1 for 3 min, 80% Ethanol 2 for 3 min, 70% Ethanol 1 for 3 min, 70% Ethanol 2 for 3 min, and then washed three times with distilled H2O. (1 and 2 mean that the tissues were treated 2 times with the same alcohol, one after the another, in two different tanks.) Tissue was then heated in Citric acid, pH 5,5 in a water-bath at 99.9° C. for 20 min, placed in Tris/NaCl (Tris, 0.6 g/l and NaCl 8.1 g/l, pH 7.4) for 5 min, block with 0.5% BSA in PBS for 60 min, and then washed three times with Tris/NaCl (Tris, 0.6 g/l and NaCl 8.1 g/l, pH 7.4). Primary antibody (150 μl per microscope slide) was added, or a negative control biotinylated isotype matched control human antibody (Chrompure IgG, Dianova, Germany) or a positive controlanti-cytokeratin antibody, and incubated for 30 min in a humidified chamber at 37° C. Tissue was washed three times with Tris/NaCl (Tris, 0.6 g/l and NaCl 8.1 g/l, pH 7.4). Secondary antibody: (150 […]) was subsequently added and incubated for 30 min in a humidified chamber at room temperature (for biotinylated antibodies: NeurtrAvidin 1:100 in PBS), washed three times with Tris/NaCl (Tris, 0.6 g/l and NaCl 8.1 g/l, pH7.4), placed in PBS for 10 min. Tiusse was subsequently incubated with diaminobenzidine (0.05%)-hydrogen peroxide (0.02%) (150 μl per microscope slide) (Sigma, Taufkirchen, München, Germany) for 10 min, washed three times with H2O, washed once with distilled H2O, incubated with hematoxylin/eosin for 5 min, and placed under running tap water 10-15 min. Tissue was then washed again with distilled H2O, and the slides covered with Aquatex (Merck Bioscience).

[3] = system: Malignant Tissues: Stomach; experiment: as above; conditions: positive/negative
Experimental: as §1, §2

[4] = system: Malignant Tissues: Pancreas; experiment: as above; conditions: positive/negative
Experimental: as §1, §2

Malignant Tissues: Colon = experiment: as above; conditions: positive/negative
Experimental: as §1, §2

[5] = system: Malignant Tissues: Prostrate; experiment: as above; conditions: Adeno, positive/negative
Experimental: as §1, §2

[6] = system: Malignant Tissues: Melanoma; experiment: as above; conditions: Metastases of malignant melanoma, positive/negative
Experimental: as §1, §2

[7] = system: Malignant Tissues: Esophagus; experiment: as above; conditions: positive/negative
Experimental: as §1, §2

Malignant Tissues: Lung = experiment: as above; conditions: positive/negative
Experimental: as §1, §2

B1: BARB4: human IgG antibody produced by hybridoma DSMZ Deposit No. DSM ACC2876; heavy chain SEQ ID NOs:1, 3, 5, 7, light chain SEQ ID NO:9 (antibody, V domains shown)
VH: QVQLVESGGGVVQPGRSLRLSCAASGFRFTTHGMHWVRQAPGKGLEWVAVISYNGRNKYYADYVNGRFTISRDDSRDTVFLQMNSLRPEDTAMYYCAKVRGDGYGDYGYFDYWGHGTLVSVSS
VL: QSALTQPRSVSGSPGQSVTISCTGTYNYVSWYQQHPGKAPKLMIFDVSRRSSGVPDRFSGSKSGNTASLTISGLQAEDEADYYCCSYGGTYLYVFGTGTTVTVLGQ
With B1 the “FACS binding to cells treated with siRNA against human TAF15 mRNA” value ([1]; 48 h after transfection) was “clearly reduced binding”, the “FACS binding to untreated cells and cells treated with unrelated siRNA (negative control)” value ([1]; after 48 h) was “binds” and the “Barb 4 +/−” value ([2]; Invasive ductal) was 2/0. For the same molecule, the “Barb 4 +/−” value ([2]; Lung Metastasis) was 1/0, the “Barb 4 +/−” value ([2]; Lymph Node Metastasis) was 1/0 and the “Barb 4 +/−” value ([3]; Adeno (Cardio, intestinal)) was 1/0. The “Barb 4 +/−” value ([3]; Adeno (intestinal)) was 2/0, the “Barb 4 +/−” value ([4]; Adeno) was 0/1 and the “Barb 4 +/−” value ([4]; Lymph Node Metastasis) was 4/0. The “Barb 4 +/−” value (Malignant Tissues: Colon; Adeno) was 1/0, the “Barb 4 +/−” value (Malignant Tissues: Colon; Liver Metastasis) was 2/0 and the “Barb 4 +/−” value [5] was 1/0. For the same molecule, the “Barb 4 +/−” value [6] was 5/0, the “Barb 4 +/−” value ([7]; Adeno (Barrett Carcinoma)) was 1/0 and the “Barb 4 +/−” value ([7]; Squamous cell) was 1/0. The “Barb 4 +/−” value (Malignant Tissues: Lung; Carcinoid (neuron-endocrine)) was 1/0, the “Barb 4 +/−” value (Malignant Tissues: Lung; Lymph Node Metastasis) was 1/0 and the “Barb 4 +/−” value (Malignant Tissues: Lung; Squamous cell) was 2/0.
